Laboratory results taken from patent publication US20180128830A1, “DETECTION OF HUMAN CYTOMEGALOVIRUS IN BREAST CANCER” (priority 2015, published 2018).

What was measured:
Stat3 [1] = test: Western blot for Stat3 phosphorylation in MDA-MB-231 cells; format: cell-based, human; details: 100 ng/ml, 15 min
Protocol: For western blotting, cells were treated with 100 ng/ml cmvIL-10, hIL-10, IFNγ or PBS for 15 min, then harvested into cell lysis buffer (150 mM NaCl, 20 mM HEPES, 0.5% Triton-X-100, 1 mM NaOV4, 1 mM EDTA, 0.1% NaN3). Lysates were clarified, proteins were separated via SDS-PAGE, and then transferred to a nitrocellulose membrane. Then membrane was incubated in blocking solution (5% milk+1×TBS-T) for 1 hr, then probed with primary antibody at a 1:1000 dilution (total Stat3 or pStat3, total Stat1 or pStat1) in blocking solution overnight at 4° C. After washing, the membranes were incubated with a 1:2000 dilution of appropriate AP-conjugated secondary antibody and bands were detected using Western Blue stabilized AP substrate (Promega, Madison, Wis.). For analysis of secreted proteins, supernatants were collected at various time points, analyzed by SDS-PAGE and then immunoblotted as above for cmvIL-10, hIL-10, or serpin E1/PAI.

MDA-MB-231 cells [2] = test: Migration assay toward EGF (modified Boyden chamber); format: cell-based, human; details: 5 hrs; for cell movement toward cytokine alone: no EGF
Protocol: Cells were harvested and resuspended at a density of 2×10^6 cells per ml in complete medium. A total volume of 0.1 ml cell suspension (2×10^5 cells) was placed in the upper chamber of a ThinCert filter with 8 μm pores in a 24-well plate (Greiner Bio-One North America, Monroe, Calif.). […] Medium from the lower chamber was collected, used to rinse the bottom of the filter twice, and then centrifuged at 1000 rpm for 10 min. The cell pellet was resuspended in 0.1 ml media and transferred to a white 96-well plate. Viable cell number was quantified using the Cell Titer Glo Assay kit according to the manufacturer's protocol.

uPAR = uPAR ELISA on culture supernatants; format: cell-based, human; details: 10 ng/ml
Protocol: DuoSet ELISA kits (R&D Systems) were used to quantify uPAR, PAI-1, and MMP-3. For uPAR and PAI-1 measurement, MDA cells were seeded in triplicate in 96-well plate at 5.0×10^4 cell/mL density with complete L-15 media and treated with 10 ng/mL of either cmvIL-10 or hIL-10 for the indicated times and supernatants were collected daily. The ELISA was carried out on supernatants according to manufacturer's instructions using and following the addition of substrate and stop solution, absorbance of the plate was measured at 450 nm using a Dynex Opsys MR microplate reader. Sample concentrations were interpolated from a standard curve using linear regression analysis. For cell-associated MMP-3, MDA cells were seeded in 96-well plates and treated with cmvIL-10 as above. Cells were treated with cell lysis buffer (150 mM NaCl, 20 mM HEPES, 0.5% Triton-X-100, 1.0 mM NaOV4, 1.0 mM EDTA, 0.1% NaN3) supplemented with 1× protease inhibitors (Calbiochem, EMD Chemicals, San Diego Calif.) and were collected daily for the indicated time points. The lysates were evaluated for MMP-3 according to the manufacturer's instructions (R&D Systems).

Stat3 [3] = test: Cell-based Stat3 ELISA; set-up: species or system human; details: varying doses, 15 min
Protocol: For the Stat3 ELISA, cells were seeded into 96-well dishes at a density of 1×10^4 cell per well, treated with varying doses of cmvIL-10 in triplicate for 15 min, and then lysed in the plate and assayed for total or pStat3 using the Cell-based Stat3 ELISA kit according to manufacturer's instructions (R&D Systems). The detection of hIL-10 in supernatants from MDA-MB-231 cell cultures was performed using the IL-10 ELISA DuoSet kit as directed (R&D Systems).

MDA-MB-231 cells [4] = test: Cell proliferation, Cell Titer Glo; format: cell-based, human
Protocol: (§1) Cells were seeded into 96-well dishes at a density of 1×10^4 cell per well in complete medium with varying doses of cmvIL-10, and then cell viability measured at the indicated time points using the Cell Titer Glo Assay kit according to manufacturer's instructions (Promega). DNA synthesis was measured in cells prepared in the same way using the BrdU Cell Proliferation ELISA Kit (Roche, Basel, Switzerland). For experiments using inhibitors, cells were cultivated in 96-well dishes as above with a final concentration of 10 μM inhibitor and BrdU incorporation evaluated after 72 hrs. For cell counts, cells were seeded into 6-well plates at a density of 2×10^5 cells per well, harvested via trypsinization, and counted using a hemacytometer at the indicated time points. The TACS Annexin V-FITC Detection Kit (Trevigen, Gaithersburg, Md.) was used to stain cells harvested from 70% confluent T75 flasks that had been treated with 100 μM etoposide for 48 hrs in the presence or absence of 100 ng/ml cmvIL-10. Cells were then analyzed via flow cytometry to detect fluorescence. For viability assays, Cell Titer Glo reagent was utilized to quantify cells that had been seeded into 96-well dishes at a density of 1×10^4 cell per well in complete medium with varying doses of etoposide in the presence or absence of 100 ng/ml cmvIL-10 as indicated

MDA-MB-231 cells [5] = test: Cell viability under etoposide, Cell Titer Glo; format: cell-based, human
Protocol: as §1

MDA-MB-231 cells [6] = test: Matrigel invasion toward EGF; format: cell-based, human; details: 100 ng/ml, 22 hours
Protocol: Transwell migration was monitored using 96-well BD Fluoroblock plates with 8 μm filters (Corning, Inc., Corning, N.Y.). Cells were harvested and suspended at density of 2.0×10^6 cells/ml in migration media (L-15+1% FBS), and a volume of 75 μl cell suspension was placed on top of the filter inserts. Where indicated, IL-10R neutralizing antibody was added at a concentration of 30 μg/ml. […] After 5 hrs at 37° C., cells that traversed the filter and entered the lower chamber were quantified by the addition of Cell Titer Glo (Promega, Madison, Wis.) using a Turner Veritas luminometer. For invasion, 96-well matrigel-coated BD Fluoroblock transwell invasion plates (Corning) were used. Invasion plates were re-hydrated with warm media at 37° C. for 3 hrs and then 75 μl cell suspension loaded onto the hydrated filters as described above. Where indicated, 10 μM Stat3 inhibitor was included with cells in the top chamber; cmvIL-10, hIL-10 or conditioned medium was present in both chambers. […] At harvest, cells that had degraded the matrigel and entered the lower chamber were quantified by the addition of Cell Titer Glo as above.

Row | Molecule | 83 kD band of phosphorylated Stat3 (pStat3) (Stat3 [1]) | cell movement toward cytokine alone (MDA-MB-231 cells [2]) | uPAR protein levels (uPAR) | amount of Stat3 phosphorylation (pStat3 to total Stat3) (Stat3 [3]) | cell growth (cell viability, RLU) (MDA-MB-231 cells [4]; 100 ng/ml, 72 hrs) | cell growth (cell viability, RLU) (MDA-MB-231 cells [4]; increasing doses of cmvIL-10) | cell viability over time (MDA-MB-231 cells [5]; 10 μM etoposide, 100 ng/ml cmvIL-10) | overall cell viability (MDA-MB-231 cells [5]; varying doses of etoposide, 100 ng/ml cmvIL-10, 48 hours) | migration response toward EGF with cytokine in lower chamber (MDA-MB-231 cells [2]; 100 ng/ml cytokine plus EGF) | invasion through matrigel compared with hIL-10 (MDA-MB-231 cells [6]) | invasion through matrigel toward EGF (MDA-MB-231 cells [6])
1 | hIL-10: purified recombinant human interleukin-10 from R&D Systems | detected | failed to stimulate cell movement | elevated | – | – | – | – | – | – | – | –
2 | cmvIL-10 (protein) ATTTTIKNTKPQCRPEDYATRLQDLRVTFHRVKPTLQREDDYSVWLDGTVVKGCWGCSVMDWLLRRYLEIVFPAGDHVYPGLKTELHSMRSTLESIYKDMRQCPLLGCGDKSVISRLSQEAERKSDNGTRKGLSELDTLFSRLEEYLHSRK | detected | did not stimulate cell movement | elevated | increased in a dose-dependent manner | significantly higher cell growth than control cultures | greater growth than control cells | able to overcome etoposide-induced effects over time and proliferate robustly | increased overall cell viability | significantly increased | significantly greater extent than hIL-10 | strong enhancer of cell invasion
